Measurements as given in patent publication US10450596.

Molecular target: histone H3 trimethylated at lysine 9 (H3K9me3) in bulk calf thymus histones (Sigma)

B1: GST-tagged KDM4C (BPS Bioscience) (protein)
chain: EVAEVESPLNPSCKIMTFRPSMEEFREFNKYLAYMESKGAHRAGLAKVIPPKEWKPRQCYDDIDNLLIPAPIQQMVTGQSGLFTQYNIQKKAMTVKEFRQLANSGKYCTPRYLDYEDLERKYWKNLTFVAPIYGADINGSIYDEGVDEWNIARLNTVLDVVEEECGISIEGVNTPYLYFGMWKTTFAWHTEDMDLYSINYLHFGEPKSWYAIPPEHGKRLERLAQGFFPSSSQGCDAFLRHKMTLISPSVLKKYGIPFDKITQEAGEFMITFPYGYHAGFNHGFNCAESTNFATVRWIDYGKVAKLCTCRKDMVKISMDIFVRKFQPDRYQLWKQGKDIYTIDHTKPTPASTPEVKAWLQRRRKVRKASRS
in vitro histone demethylation assay; H3K9me3 assessed by Western blot: Addition of purified KDM4C to histone substrates resulted in demethylation of H3K9me3
